# Data reported in PMC3836175 (Science (New York, N.Y.), 2013).
# B1: ribosomal protein S23 (the yeast orthologue of bacterial protein S12) (natural protein, UniProt P0CX29 1-145, looked up)
# chain: MGKGKPRGLNSARKLRVHRRNNRWAENNYKKRLLGTAFKSSPFGGSSHAKGIVLEKLGIESKQPNSAIRKCVRVQLIKNGKKVTAFVPNDGCLNFVDENDEVLLAGFGRKGKAKGDIPGVRFKVVKVSGVSLLALWKEKKEKPRS
# Target: T1, N-terminally truncated eIF5B (residues 396-1002) with the point mutation T439A (S. cerevisiae, UniProt P39730 396-1002, T439A)
# T1 sequence (looked up): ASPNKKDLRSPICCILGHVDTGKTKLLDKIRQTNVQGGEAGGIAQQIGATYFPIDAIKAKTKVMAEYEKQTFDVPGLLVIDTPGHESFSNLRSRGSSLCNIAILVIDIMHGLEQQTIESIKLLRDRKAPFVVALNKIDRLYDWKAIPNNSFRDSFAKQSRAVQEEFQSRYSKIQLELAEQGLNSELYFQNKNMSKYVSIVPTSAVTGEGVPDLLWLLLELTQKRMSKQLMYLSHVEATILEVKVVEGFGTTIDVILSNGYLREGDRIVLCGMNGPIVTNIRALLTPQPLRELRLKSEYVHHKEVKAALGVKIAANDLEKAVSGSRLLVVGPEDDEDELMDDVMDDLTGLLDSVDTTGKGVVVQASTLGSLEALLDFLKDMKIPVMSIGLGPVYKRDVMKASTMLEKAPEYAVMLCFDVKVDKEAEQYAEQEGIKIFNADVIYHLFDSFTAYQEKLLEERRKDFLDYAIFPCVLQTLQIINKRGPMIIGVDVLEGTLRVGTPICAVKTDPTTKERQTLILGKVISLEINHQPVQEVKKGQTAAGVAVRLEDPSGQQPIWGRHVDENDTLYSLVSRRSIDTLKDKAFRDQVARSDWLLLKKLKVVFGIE
# Assay: cryo-EM structure
binder,measurement,value
B1,binding result,binds
